Results on 4 substances are retold here after PMC10643666.

In this assay the target is ZIKV envelope (E) protein, HA-tagged. Put plainly: co-immunoprecipitation (HA-specific IP) with densitometry of immunoblots. Particulars: HEK 293T cells, lysed 18 h after transfection; n = 4; parent: est. 0.93; read off a plot. On the technique in general: A western blot detects proteins with antibodies after separation by electrophoresis.

As for ZIKV prM protein, wild type R38L; F42A, the ratio to parent (fold E; mut:WT) was 1.6.

As to ZIKV prM protein, wild type K60L; Y63A, the ratio to parent (fold E; mut:WT) amounted to 1.7.

In the case of ZIKV prM protein, wild type R38L; F42S, the ratio to parent (fold E; mut:WT) was 0.93. For ZIKV prM protein, wild type K60L; Y63S the value was 0.9.
